Paper doi:10.1101/2021.01.07.425795 (bioRxiv, 2021)
Substitutions are numbered along the chain they refer to. Like-named read-outs stand apart in the source and are kept apart here.

T1: ACAD9-His6 (human, UniProt Q9H845 38-621)
T1 sequence (looked up): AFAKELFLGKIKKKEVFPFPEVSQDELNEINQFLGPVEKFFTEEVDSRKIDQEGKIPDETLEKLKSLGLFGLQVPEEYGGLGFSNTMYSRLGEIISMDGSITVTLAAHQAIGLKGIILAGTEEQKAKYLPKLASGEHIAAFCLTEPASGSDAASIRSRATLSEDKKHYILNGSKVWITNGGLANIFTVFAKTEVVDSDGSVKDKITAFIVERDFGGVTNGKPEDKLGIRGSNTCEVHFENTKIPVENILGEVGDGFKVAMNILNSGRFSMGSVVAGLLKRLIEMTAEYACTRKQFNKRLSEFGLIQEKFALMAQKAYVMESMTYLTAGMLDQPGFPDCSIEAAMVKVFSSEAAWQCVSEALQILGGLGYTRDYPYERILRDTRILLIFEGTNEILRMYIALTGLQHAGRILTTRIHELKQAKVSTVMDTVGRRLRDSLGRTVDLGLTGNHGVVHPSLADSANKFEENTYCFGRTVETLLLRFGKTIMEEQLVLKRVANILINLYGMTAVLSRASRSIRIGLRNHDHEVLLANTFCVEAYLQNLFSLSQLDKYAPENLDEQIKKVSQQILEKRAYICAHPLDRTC

T2: ACAD9 (wild type, without a tag) (human, UniProt Q9H845 38-621)
T2 sequence (looked up): T1 sequence (looked up)

T3: ACAD9 Arg469Trp (human, UniProt Q9H845 38-621, Arg469Trp)
T3 sequence (looked up): T1 sequence (looked up) with R432W

T4: ACAD9 Arg518His (human, UniProt Q9H845 38-621, Arg518His)
T4 sequence (looked up): T1 sequence (looked up) with R481H

T5: ACAD9 Glu426Gln (human, UniProt Q9H845 38-621, Glu426Gln)
T5 sequence (looked up): T1 sequence (looked up) with E389Q

B1: ECSIT (tag-free) (natural protein, human, UniProt Q9BQ95 49-431, looked up)
chain: SSEQSLVPSPPEPRQRPTKALVPFEDLFGQAPGGERDKASFLQTVQKFAEHSVRKRGHIDFIYLALRKMREYGVERDLAVYNQLLNIFPKEVFRPRNIIQRIFVHYPRQQECGIAVLEQMENHGVMPNKETEFLLIQIFGRKSYPMLKLVRLKLWFPRFMNVNPFPVPRDLPQDPVELAMFGLRHMEPDLSARVTIYQVPLPKDSTGAADPPQPHIVGIQSPDQQAALARHNPARPVFVEGPFSLWLRNKCVYYHILRADLLPPEEREVEETPEEWNLYYPMQLDLEYVRSGWDNYEFDINEVEEGPVFAMCMAGAHDQATMAKWIQGLQETNPTLAQIPVVFRLAGSTRELQTSSAGLEEPPLPEDHQEEDDNLQRQQQGQS
B2: His6-ECSIT (natural protein, human, UniProt Q9BQ95 49-431, looked up)
chain: B1 chain
B3: His6-SMT3-NDUFAF1 (natural protein, human, UniProt Q9Y375 25-327, looked up)
chain: YPFLGIRFAEYSSSLQKPVASPGKASSQRKTEGDLQGDHQKEVALDITSSEEKPDVSFDKAIRDEAIYHFRLLKDEIVDHWRGPEGHPLHEVLLEQAKVVWQFRGKEDLDKWTVTSDKTIGGRSEVFLKMGKNNQSALLYGTLSSEAPQDGESTRSGYCAMISRIPRGAFERKMSYDWSQFNTLYLRVRGDGRPWMVNIKEDTDFFQRTNQMYSYFMFTRGGPYWQEVKIPFSKFFFSNRGRIRDVQHELPLDKISSIGFTLADKVDGPFFLEIDFIGVFTDPAHTEEFAYENSPELNPRLFK

Legend:
ACAD9-His6 = molecular target: T1, ACAD9-His6; assay: pull-down
[1] = molecular target: T2, ACAD9 (wild type, without a tag); assay: SEC
SEC = molecular target: the molecule itself; assay: SEC
[2] = molecular target: T2, ACAD9 (wild type, without a tag); assay: SEC; remark: listed apart in the source
ACAD9 Arg469Trp = molecular target: T3, ACAD9 Arg469Trp; assay: SEC
ACAD9 Arg518His = molecular target: T4, ACAD9 Arg518His; assay: SEC
ACAD9 Glu426Gln = molecular target: T5, ACAD9 Glu426Gln; assay: SEC
His6-ECSIT [3] = molecular target: B2; assay: SEC
His6-ECSIT [4] = molecular target: B2; assay: SEC; remark: listed apart in the source

Binder: B1
stoichiometry N (ACAD9-His6): ~1 mol/mol

Binder: B2
stoichiometry N [1]: 1 ECSIT chains per ACAD9 chain (one dimer with one dimer)
stoichiometry N (SEC): 2
stoichiometry N [2]: 1 mol/mol
binding result (ACAD9 Arg469Trp): binds
binding result (ACAD9 Arg518His): binds
binding result (ACAD9 Glu426Gln): binds

Binder: B3
stoichiometry N (His6-ECSIT [3]): 1 NDUFAF1 chains per ECSIT chain (two monomers with one dimer)
stoichiometry N (His6-ECSIT [4]): 1 mol/mol
